# Reference: the supplement of paper PMC10567573
# B1: PTPLAD1 (parent)
# chain: YSFYMLTCIDMDWKVLTWLRYTLW
# B2: MATN2 (parent)
# chain: FSLKTFKRKSEVERAVKRMRHLST
# Variants of: B1
# Test: protein stability index of a GFP-peptide fusion (GPS, HEK-293T) (PSI 1-6); higher = more stable
# Settings: c terminus: a fixed tail appended
# 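Note: lentivirally expressed fusions sorted by FACS into six bins by GFP to DsRed ratio, PSI derived from sequencing read proportions per bin multiplied by bin number.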
row,Variant,protein stability index
1,S2V,1.58
2,S2H,2.1
3,S2Q,1.97
4,S2D,1.35
5,S2K,5.08
6,S2P,2.62
7,S2R,2.84
8,S2Y,2.99
9,S2C,1.93
10,S2M,2.26
11,S2T,1.56
12,S2I,2.41
13,S2A,2.3
14,S2W,2.13
15,T17C,1.67
16,T17H,2.63
17,T17R,3.47
18,T17F,3.31
19,T17V,2.23
20,T17Q,2.82
21,T17D,2.45
22,T17W,2.66
23,T17I,2.68
24,T17Y,1.8
25,T17E,2.15

row,Variant,protein stability index
1,R20N,4.06
2,R20L,1.23
3,R20V,2.13
4,R20F,1.28
5,R20G,3
6,R20P,3.84
7,R20C,1.52
8,R20I,1.69
9,R20K,3.46
10,R20M,2.04
11,R20A,2.88
12,R20H,4.19
13,R20W,1.06
14,R20T,3.6
15,R20Y,2.42
16,K14W,2.45
17,K14L,3.3
18,K14M,1.28
19,K14D,2.16
20,K14N,3.02
21,K14Q,2.03
22,K14F,1.85
23,K14H,2.97
24,K14Y,2.61
25,K14T,3.16

row,Variant,protein stability index
1,K14R,2.34
2,K14P,3.03
3,K14I,2.92
4,K14A,2.96
5,W18H,4.4
6,W18K,3.24
7,W18V,2.83
8,W18F,3.34
9,W18Q,2.11
10,W18M,1.84
11,W18A,2.61
12,W18D,1.68
13,W18I,3.65
14,W18T,3.35
15,M5H,2.54
16,M5D,2.49
17,M5R,2.7
18,M5V,2.62
19,M5G,2.15
20,M5P,2.17
21,M5Y,3.07
22,M5N,2.21
23,M5Q,2.64
24,M5K,2.41
25,M5I,3.07

row,Variant,protein stability index
1,M5F,3.81
2,M5S,1.4
3,Y4M,2.53
4,Y4V,2.36
5,Y4W,2.12
6,Y4G,2.99
7,Y4L,3.13
8,Y4P,2.72
9,Y4H,3.11
10,Y4I,3.63
11,Y4N,3.92
12,Y4Q,1.98
13,Y4T,1.86
14,Y4D,1.99
15,Y4C,4.29
16,Y4R,2.28
17,Y4E,1.77
18,Y4F,2.53
19,Y4A,2.33
20,Y4S,1.77
21,Y4K,2.05
22,T7F,3.29
23,T7L,2.43
24,T7I,2.86
25,T7V,1.27

row,Variant,protein stability index
1,T7Q,3.88
2,T7N,2.85
3,T7K,2.49
4,T7R,2.4
5,T7P,2.94
6,T7S,2.16
7,T7D,2.73
8,T7A,2.65
9,T7H,3.17
10,T7Y,3.62
11,T7G,1.4
12,T7M,2.02
13,T7E,3.27
14,L6A,2.21
15,L6D,2.56
16,L6H,3.22
17,L6T,2.85
18,L6Y,3.68
19,L6N,2.48
20,L6K,1.28
21,L6Q,1.31
22,L6F,2.33
23,L6P,2.45
24,D10L,1.38
25,D10G,4.97

row,Variant,protein stability index
1,D10N,2.6
2,D10T,2.76
3,D10A,3.85
4,D10V,3.62
5,D10R,3.09
6,D10P,1.95
7,D10I,2.96
8,D10E,2.65
9,D10F,3.86
10,D10Q,3.51
11,M11D,1.56
12,M11P,2.49
13,M11E,2.15
14,M11Y,3.68
15,M11I,2.67
16,M11A,3.31
17,M11K,3.05
18,M11T,1.21
19,M11R,2.86
20,M11L,3.18
21,M11C,3.43
22,M11V,2.87
23,M11H,1.6
24,M11W,2.13
25,M11N,1.86

row,Variant,protein stability index
1,M11F,2.15
2,F3D,2
3,F3C,2.18
4,F3K,1.69
5,F3S,2.61
6,F3N,1.46
7,F3L,1.03
8,F3Y,3.36
9,F3E,2.31
10,F3Q,3.31
11,F3H,1.93
12,F3W,2.37
13,F3A,2.37
14,F3G,2.24
15,F3I,3.74
16,F3P,2.51
17,F3T,1.68
18,F3M,3.14
19,L16E,2.06
20,L16Q,2.4
21,L16F,3.23
22,L16A,3.49
23,L16V,1.5
24,L16Y,1.59
25,L16D,3.41

row,Variant,protein stability index
1,L16I,1.75
2,L16P,2.32
3,L16R,2.13
4,L16N,4.69
5,L16W,3.38
6,I9T,1.25
7,I9N,2.78
8,I9P,2.05
9,I9K,1.66
10,I9H,1.65
11,I9A,2.07
12,I9Y,1.74
13,I9C,1.58
14,I9W,1.96
15,I9G,2.4
16,I9D,2.78
17,I9Q,2.85
18,I9M,2.6
19,I9R,2.45
20,I9F,2.17
21,Y1R,1.4
22,Y1D,1.5
23,Y1I,3.26
24,Y1Q,3.61
25,Y1L,1.47

row,Variant,protein stability index
1,Y1T,2.2
2,Y1A,2.82
3,Y1M,3.57
4,Y1P,1.7
5,Y1C,2.62
6,Y1K,2.1
7,Y1S,2.07
8,Y1N,2.57
9,Y1V,4.18
10,Y1H,2.28
11,Y1W,3.32
12,W13V,3.87
13,W13Y,4.08
14,W13F,2.73
15,W13R,2.4
16,W13I,3.42
17,W13K,2.71
18,W13L,2.72
19,W13E,2.56
20,W13P,3.04
21,W13N,4.03
22,W13D,1.74
23,W13M,1.66
24,W13G,3.3
25,W13H,2.36

row,Variant,protein stability index
1,W13A,2.71
2,D12M,1.51
3,D12I,1.82
4,D12G,2.15
5,D12T,1.91
6,D12A,1.63
7,D12V,1.79
8,D12F,2.23
9,D12W,1.82
10,D12C,1.65
11,D12R,2.18
12,D12Y,1.95
13,D12K,3.14
14,D12P,1.94
15,D12H,1.75
16,D12L,2.09
17,D12N,2.65
18,D12E,2.68
19,L19Q,3.25
20,L19M,1.93
21,L19N,3.55
22,L19D,4.18
23,L19R,2.4
24,L19P,3.35
25,L19H,2.65

row,Variant,protein stability index
1,L19W,2.31
2,L19Y,2.91
3,L19F,3.32
4,L19I,2.06
5,L19E,2.83
6,L19K,2.22
7,L19A,2.9
8,L19S,1.22
9,C8S,2.62
10,C8L,2.85
11,C8I,3.23
12,C8R,1.42
13,C8D,2
14,C8T,2.51
15,C8M,1.73
16,C8Q,3.01
17,C8P,1.7
18,C8N,2.97
19,C8G,3.31
20,C8E,2.25
21,C8F,2.48
22,C8W,2.54
23,C8A,2.9
24,C8K,3.09
25,C8H,2.1

row,Variant,protein stability index
1,Y21F,2.66
2,Y21R,2.05
3,Y21C,4.75
4,Y21S,3.16
5,Y21Q,2.17
6,Y21E,3.44
7,Y21G,3.32
8,Y21L,3.2
9,Y21N,4.05
10,Y21I,2.98
11,V15T,2.91
12,V15K,3.92
13,V15Y,3.09
14,V15Q,2.69
15,V15L,1.89
16,V15M,1.03
17,V15C,3.85
18,V15I,4.29
19,V15N,2.59
20,V15R,1.61
21,V15E,1.86
22,V15W,2.22

# Variants of: B2
# Test: as above
# Settings: c terminus: a fixed tail appended
row,Variant,protein stability index
1,L22Q,2.62
2,L22Y,1.93
3,L22V,2.58
4,L22S,1.92
5,L22M,2.57
6,L22N,2.47
7,L22T,3.17
8,L22R,2.68
9,S23Y,2.3
10,S23R,2.35
11,S23W,1.72
12,S23A,1.81
13,S23G,2.1
14,S23E,2
15,S23D,3.11
16,S23C,1.42
17,S23I,2.8
18,S23N,2.53
19,S23T,1.89

row,Variant,protein stability index
1,S23V,1.28
2,S23K,2.64
3,S23P,2.25
4,T24G,3.01
5,T24Y,2.23
6,T24L,2.4
7,T24I,2.08
8,T24Q,1.55
9,T24S,2.53
10,T24D,2.44
11,T24V,1.62
12,T24K,3.38
13,T24N,3
14,T24A,2.72
15,T24W,1.55
16,T24H,2.57
17,T24E,2.67
18,T24P,2.35
